T1: TAP-tagged Ada2 (S. cerevisiae, UniProt Q02336 1-434)
T1 construct: Ada2, SAGA component, S. cerevisiae; TAP-tagged ADA2; Held on IgG beads, released with TEV protease, then held on calmodulin beads, so part of the TAP tag is cut off during the purification; also called TAP-Ada2; TAP-ADA2; source: S. cerevisiae strain with TAP-tagged ADA2 (bought: Open Biosystems YSC1178-202230655; crossed with CY6582 for the tra1 Q3 strain CY7042), in lysate of cells ground in …
T1 sequence (looked up): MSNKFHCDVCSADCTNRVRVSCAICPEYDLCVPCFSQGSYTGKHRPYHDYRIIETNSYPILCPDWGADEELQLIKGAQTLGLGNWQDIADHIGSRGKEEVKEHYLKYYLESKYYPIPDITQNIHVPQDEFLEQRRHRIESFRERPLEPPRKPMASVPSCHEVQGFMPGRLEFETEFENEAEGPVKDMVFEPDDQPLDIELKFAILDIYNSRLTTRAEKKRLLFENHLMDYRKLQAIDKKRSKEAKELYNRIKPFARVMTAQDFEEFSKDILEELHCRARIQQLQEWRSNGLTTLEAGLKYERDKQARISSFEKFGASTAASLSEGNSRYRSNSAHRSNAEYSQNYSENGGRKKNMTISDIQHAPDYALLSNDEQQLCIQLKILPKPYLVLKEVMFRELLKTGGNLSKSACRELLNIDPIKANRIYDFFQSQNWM


Assays:
Experiment in all cases: affinity purification with mass spectrometry; tandem affinity purification of TAP-tagged Epl1 or Ada2 from lysates of TRA1 or tra1 Q3 strains (260 mg or 170 mg protein): IgG beads 2 h at 4°, IPP150 (10 mM Tris-HCl pH 8.0, 150 mM NaCl), TEV cleavage, calmodulin beads, EGTA elution; SDS-PAGE, Coomassie Brilliant Blue; bands identified by MALDI mass spectrometry or predicted from mass; band intensity by ImageJ
[1] = molecular target: TAP-tagged Ada2 (S. cerevisiae) (UniProt Q02336)
[2] = molecular target: TAP-tagged Epl1 (S. cerevisiae) (UniProt P43572)
TAP-tagged Epl1 (S. cerevisiae), sequence (P43572 whole entry): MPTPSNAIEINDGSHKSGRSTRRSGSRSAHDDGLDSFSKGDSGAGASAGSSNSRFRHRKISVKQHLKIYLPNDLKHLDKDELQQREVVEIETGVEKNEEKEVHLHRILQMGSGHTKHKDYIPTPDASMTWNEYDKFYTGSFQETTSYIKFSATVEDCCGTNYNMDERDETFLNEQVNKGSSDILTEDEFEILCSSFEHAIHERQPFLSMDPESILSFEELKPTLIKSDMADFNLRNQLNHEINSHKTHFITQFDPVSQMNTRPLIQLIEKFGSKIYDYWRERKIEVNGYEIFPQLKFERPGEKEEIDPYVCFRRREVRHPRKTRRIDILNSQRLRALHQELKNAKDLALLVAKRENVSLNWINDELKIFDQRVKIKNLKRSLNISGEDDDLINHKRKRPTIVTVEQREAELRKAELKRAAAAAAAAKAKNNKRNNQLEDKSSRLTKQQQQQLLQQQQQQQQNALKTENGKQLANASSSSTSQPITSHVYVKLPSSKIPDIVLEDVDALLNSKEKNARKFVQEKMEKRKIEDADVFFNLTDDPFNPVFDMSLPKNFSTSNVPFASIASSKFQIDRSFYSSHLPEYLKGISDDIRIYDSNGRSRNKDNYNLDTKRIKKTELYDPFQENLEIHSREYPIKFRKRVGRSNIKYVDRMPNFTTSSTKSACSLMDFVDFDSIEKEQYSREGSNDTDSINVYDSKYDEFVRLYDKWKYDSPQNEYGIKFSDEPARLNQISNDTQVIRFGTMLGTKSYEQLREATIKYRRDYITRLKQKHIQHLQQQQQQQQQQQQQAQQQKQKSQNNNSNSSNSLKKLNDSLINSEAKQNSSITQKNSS

TAP-tagged Ada2 = molecular target: T1, TAP-tagged Ada2; details: partners not purified

| fold decrease against wild-type Tra1 [1] [fold] | fold decrease against wild-type Tra1 [2] [fold] | fold decrease of full length Spt20 in the TAP-Ada2 pull down, tra1 Q3 strain against the wild-type strain (TAP-tagged Ada2) [fold] | Molecule |
| --- | --- | --- | --- |
| 6.5 | 6.7 |  | Tra1 Q3 (R3389Q, R3390Q, R3456Q), P38811 1-3744 |
|  |  | 2.1 | full length Spt20 (natural protein, UniProt P50875 1-604, looked up, Spt20, S. cerevisiae, full length band in the TAP-Ada2 purification; source: endogenous, S. cerevisiae lysate) MSANSPTGNDPHVFGIPVNATPSNMGSPGSPVNVPPPMNPAVANVNHPVMRTNSNSNANEGTRTLTREQIQQLQQRQRLLLQQRLLEQQRKQQALQNYEAQFYQMLMTLNKRPKRLYNFVEDADSILKKYEQYLHSFEFHIYENNYKICAPANSRLQQQQKQPELTSDGLILTKNNETLKEFLEYVARGRIPDAIMEVLRDCNIQFYEGNLILQVYDHTNTVDVTPKENKPNLNSSSSPSNNNSTQDNSKIQQPSEPNSGVANTGANTANKKASFKRPRVYRTLLKPNDLTTYYDMMSYADNARFSDSIYQQFESEILTLTKRNLSLSVPLNPYEHRDMLEETAFSEPHWDSEKKSFIHEHRAESTREGTKGVVGHIEERDEFPQHSSNYEQLMLIMNERTTTITNSTFAVSLTKNAMEIASSSSNGVRGASSSTSNSASNTRNNSLANGNQVALAAAAAAAAVGSTMGNDNNQFSRLKFIEQWRINKEKRKQQALSANINPTPFNARISMTAPLTPQQQLLQRQQQALEQQQNGGAMKNANKRSGNNATSNNNNNNNNLDKPKVKRPRKNAKKSESGTPAPKKKRMTKKKQSASSTPSSTTMS |

From PMC5982823, “The Pseudokinase Domain of Saccharomyces cerevisiae Tra1 Is Required for Nuclear Localization and Incorporation into the SAGA and NuA4 Complexes” (G3: Genes|Genomes|Genetics, 2018)
